From patent US20040063116 come the findings set out here.

Data set [1] has as its target T1, RNase A zymogen with 104/105 termini, P61823.
T1 chain: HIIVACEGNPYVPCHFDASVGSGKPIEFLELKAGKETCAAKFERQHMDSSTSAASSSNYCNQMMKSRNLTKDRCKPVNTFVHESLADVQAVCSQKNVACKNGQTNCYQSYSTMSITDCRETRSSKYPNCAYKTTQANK

In data set [2] the target is T2, RNase A zymogen with 113/114 termini, P61823.
T2 chain: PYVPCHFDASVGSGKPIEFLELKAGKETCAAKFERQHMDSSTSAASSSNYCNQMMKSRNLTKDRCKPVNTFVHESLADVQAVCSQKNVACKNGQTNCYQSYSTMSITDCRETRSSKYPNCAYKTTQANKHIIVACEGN

For data set [3], the target named is RNase A zymogen with 20/21 termini, P61823.
Data set [4] deals with T3, RNase A zymogen with 67/71 termini, P61823.
T3 chain: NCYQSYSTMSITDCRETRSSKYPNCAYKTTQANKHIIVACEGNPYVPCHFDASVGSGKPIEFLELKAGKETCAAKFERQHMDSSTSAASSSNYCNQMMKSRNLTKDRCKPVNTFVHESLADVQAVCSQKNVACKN

The target in data set [5] is T4, RNase A zymogen with 88/89 termini, P61823.
T4 chain: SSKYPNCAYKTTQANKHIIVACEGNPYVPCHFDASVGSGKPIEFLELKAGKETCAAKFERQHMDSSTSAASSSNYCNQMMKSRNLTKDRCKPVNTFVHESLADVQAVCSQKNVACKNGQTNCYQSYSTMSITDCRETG

RNase A zymogen with 20/21 termini, P61823, sequence (P61823 whole entry, looked up): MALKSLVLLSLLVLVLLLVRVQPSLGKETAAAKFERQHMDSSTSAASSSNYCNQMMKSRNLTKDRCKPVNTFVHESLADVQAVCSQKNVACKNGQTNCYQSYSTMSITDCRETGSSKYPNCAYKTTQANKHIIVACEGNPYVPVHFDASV

B1: plasmepsin II (protein)
chain: MDITVREHDFKHGFIKSNSTFDGLNIDNSKNKKKIQKGFQILYVLLFCSVMCGLFYYVYENVWLQRDNEMNEILKNSEHLTIGFKVENAHDRILKTIKTHKLKNYIKESVNFLNSGLTKTNYLGSSNDNIELVDFQNIMFYGDAEVGDNQQPFTFILDTGSANLWVPSVKCTTAGCLTKHLYDSSKSRTYEKDGTKVEMNYVSGTVSGFFSKDLVTVGNLSLPYKFIEVIDTNGFEPTYTASTFDGILGLGWKDLSIGSVDPIVVELKNQNKIENALFTFYLPVHDKHTGFLTIGGIEERFYEGPLTYEKLNHDLYWQITLDAHVGNIMLEKANCIVDSGTSAITVPTDFLNKMLQNLDVIKVPFLPFYVTLCNNSKLPTFEFTSENGKYTLEPEYYLQHIEDVGPGLCMLNIIGLDFPVPTFILGDPFMRKYFTVFDYDNHSVGIALAKKNL
In the case of B1, the “proteolytic cleavage of the zymogen (SDS-PAGE) and gain of ribonucleolytic activity” value in data set [1], in data set [2], in data set [3], in data set [4] and in data set [5] was “The proteolytic cleavage by plasmepsin II was complete within 10 minutes at an approximately 1:100 molar ratio of protease to zymogen” each time.
